Assay results as given in article PMC10983988.

Biological target: T1, m-TREX1 (Three Prime Repair Exonuclease 1, catalytic domain) (mouse, UniProt Q91XB0 1-242)
T1 sequence: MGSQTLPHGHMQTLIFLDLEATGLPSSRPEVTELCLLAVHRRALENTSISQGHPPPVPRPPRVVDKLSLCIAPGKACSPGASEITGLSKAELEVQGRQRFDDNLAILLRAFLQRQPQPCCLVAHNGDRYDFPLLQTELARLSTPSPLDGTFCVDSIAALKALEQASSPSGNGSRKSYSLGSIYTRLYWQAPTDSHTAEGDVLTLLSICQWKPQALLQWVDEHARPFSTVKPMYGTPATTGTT
Assay: fluorescence polarization anisotropy

B1: U3 unprocessed (dsDNA)
DNA 1: AGTGAATTAGCCCTTCCAGT
DNA 2: ACTGGAAGGGCTAATTCACT
Kd: 118 ± 8.4 nM

B2: U3 3'-processed (dsDNA)
DNA 1: AGTGAATTAGCCCTTCCA
DNA 2: ACTGGAAGGGCTAATTCACT
Kd: 216 ± 4.6 nM
